{
  "source": "patent US20260132182A1",
  "about": "(published 2026)",
  "binders": {"B1": {"name": "Compound 0234 (peptide)", "peptide": "HWEGTFTSDVSSYLEEQAAREFIEWLVRGK([AEEA-AEEA-γGlu-Decanoyl(10-(4-HOOC-PhO))])GEGGGGGASELSTAALGRLSAELHELK([AEEA-AEEA-γGlu-Decanoyl(10-(4-HOOC-PhO))])TLPRTETGSGSP-NH2"}, "B2": {"name": "Compound 0040 (peptide)", "peptide": "H[Aib]EGTFTSDVSSYLEGQAAK([AEEA-AEEA-γGlu-C18 diacid])EFIAWLVRGRGGGGEASELSTAALGRLSAELHELATLPRTETGSGSP-NH2"}, "B3": {"name": "Compound 0231 (peptide)", "peptide": "HWEGTFTSDVSSYLEEQAARK([AEEA-AEEA-γGlu-Decanoyl(10-(4-HOOC-PhO))])FIEWLVRGRGEGGGGGASELSTAALGRLSK([AEEA-AEEA-γGlu-Decanoyl(10-(4-HOOC-PhO))])ELHELATLPRTETGSGSP-NH2"}, "B4": {"name": "Compound 0260 (peptide)", "peptide": "H[Aib]EGTFTSDK([AEEA-AEEA-γGlu-C16 diacid])SSYLEEQAAREFIAWLVRGRGGGGGEASELSTAALGRLSAELHELK([AEEA-AEEA-γGlu-C16 diacid])TLPRTETGSGSP-NH2"}, "B5": {"name": "Compound 0254 (peptide)", "peptide": "HWEGTFTSDVSSYLEEQAARK([AEEA-AEEA-γGlu-Trx-C20 diacid])FIEWLVRGRGEGGGGGASELSTAALGRLSAELHELATLPRTETGSGSP-NH2"}, "B6": {"name": "Compound 0233 (peptide)", "peptide": "HWEGTFTSDVSSYLEEQAAREFIEWLVRGK([AEEA-AEEA-γGlu-Decanoyl(10-(4-HOOC-PhO))])GEGGGGGASELSTAALGRLSK([AEEA-AEEA-γGlu-Decanoyl(10-(4-HOOC-PhO))])ELHELATLPRTETGSGSP-NH2"}, "B7": {"name": "Compound 0235 (peptide)", "peptide": "H[Aib]EGTFTSDVSSYLEEQAAREFIAWLVRGK([AEEA-AEEA-γGlu-Decanoyl(10-O(3-COOH-Ph))])K([AEEA-AEEA-γGlu-Decanoyl(10-O(3-COOH-Ph))])GGGGASELSTAALGRLSAELHELATLPRTETGSGSP-NH2"}, "B8": {"name": "Compound 0259 (peptide)", "peptide": "H[Aib]EGTFTSDK([AEEA-AEEA-γGlu-C16 diacid])SSYLEEQAAREFIAWLVRGRGGGGGEASELSTAALGRLSAELHK([AEEA-AEEA-γGlu-C16 diacid])LATLPRTETGSGSP-NH2"}, "B9": {"name": "Compound 0255 (peptide)", "peptide": "HWEGTFTSDVSSYLEEQAARK([AEEA-AEEA-γGlu-Undecanoyl(11-OPh(4-COOH))])FIEWLVRGRGEGGGGGASELSTAALGRLSK([AEEA-AEEA-γGlu-Undecanoyl(11-OPh(4-COOH))])ELHELATLPRTETGSGSP-NH2"}, "B10": {"name": "Compound 0232 (peptide)", "peptide": "HWEGTFTSDVSSYLEEQAARK([AEEA-AEEA-γGlu-Decanoyl(10-(4-HOOC-PhO))])FIEWLVRGRGEGGGGGASELSTAALGRLSAELHELK([AEEA-AEEA-γGlu-Decanoyl(10-(4-HOOC-PhO))])TLPRTETGSGSP-NH2"}},
  "note": "Starred links: 1 amine or outer side, 2 acyl side, 3 side chain; linkers in the order of their positions; H or OH if unused. Non-standard residues stand in square brackets, D forms with d. Groups on a side chain read outwards from the residue. *: point of attachment. Undecanoyl(11-OPh(4-COOH)) = O=C(O)c1ccc(OCCCCCCCCCCC(=O)*)cc1; Decanoyl(10-(4-HOOC-PhO)) = O=C(O)c1ccc(OCCCCCCCCCC(=O)*)cc1; Decanoyl(10-O(3-COOH-Ph)) = O=C(O)c1cccc(OCCCCCCCCCC(=O)*)c1; C20 diacid = O=C(O)CCCCCCCCCCCCCCCCCCC(=O)*; C18 diacid = O=C(O)CCCCCCCCCCCCCCCCC(=O)*; C16 diacid = O=C(O)CCCCCCCCCCCCCCC(=O)*; γGlu = O=C(O)[C@H](CCC(=O)[*:2])N[*:1]; Trx = NC[C@H]1CC[C@H](C(=O)O)CC1; AEEA = NCCOCCOCC(=O)O; Aib = CC(C)(N)C(=O)O",
  "data": [
    {"target": "human GLP-1 receptor (human, UniProt P43220 24-463)", "assay": "cell-based or functional assay", "units": {"Human GLP-1R potency [EC50 (pM)]": "pM"}, "values": [
      {"binder": "B1", "Human GLP-1R potency [EC50 (pM)]": 38.9},
      {"binder": "B2", "Human GLP-1R potency [EC50 (pM)]": 20.7},
      {"binder": "B3", "Human GLP-1R potency [EC50 (pM)]": 5.6},
      {"binder": "B4", "Human GLP-1R potency [EC50 (pM)]": 11.9},
      {"binder": "B5", "Human GLP-1R potency [EC50 (pM)]": 8.9},
      {"binder": "B6", "Human GLP-1R potency [EC50 (pM)]": 46.4},
      {"binder": "B7", "Human GLP-1R potency [EC50 (pM)]": 10.4},
      {"binder": "B8", "Human GLP-1R potency [EC50 (pM)]": 15.8},
      {"binder": "B9", "Human GLP-1R potency [EC50 (pM)]": 2.5},
      {"binder": "B10", "Human GLP-1R potency [EC50 (pM)]": 6.4}
    ]},
    {"target": "T1, human amylin-3 (a) receptor (human, UniProt P30988 25-474; O60896 24-148)", "T1 sequence (looked up) 1": "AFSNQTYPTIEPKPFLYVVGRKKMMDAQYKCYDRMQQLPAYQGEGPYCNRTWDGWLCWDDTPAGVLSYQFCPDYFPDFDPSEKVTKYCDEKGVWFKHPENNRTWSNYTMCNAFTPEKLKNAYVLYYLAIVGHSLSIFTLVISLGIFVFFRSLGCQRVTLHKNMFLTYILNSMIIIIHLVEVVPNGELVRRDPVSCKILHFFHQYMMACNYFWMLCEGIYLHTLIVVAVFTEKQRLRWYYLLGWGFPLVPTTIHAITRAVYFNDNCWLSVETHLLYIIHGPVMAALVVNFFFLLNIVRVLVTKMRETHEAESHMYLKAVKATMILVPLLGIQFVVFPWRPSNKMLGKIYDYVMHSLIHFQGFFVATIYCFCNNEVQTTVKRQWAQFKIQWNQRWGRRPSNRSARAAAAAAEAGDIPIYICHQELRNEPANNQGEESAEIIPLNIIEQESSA", "T1 sequence (looked up) 2": "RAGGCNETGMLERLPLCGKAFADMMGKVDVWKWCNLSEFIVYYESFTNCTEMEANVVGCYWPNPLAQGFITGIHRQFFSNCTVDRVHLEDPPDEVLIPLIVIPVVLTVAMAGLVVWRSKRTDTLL", "assay": "cell-based or functional assay", "units": {"Human AmyR3 potency [EC50 (pM)]": "pM"}, "values": [
      {"binder": "B1", "Human AmyR3 potency [EC50 (pM)]": 38.4},
      {"binder": "B2", "Human AmyR3 potency [EC50 (pM)]": 7.7},
      {"binder": "B3", "Human AmyR3 potency [EC50 (pM)]": 68},
      {"binder": "B4", "Human AmyR3 potency [EC50 (pM)]": 41.8},
      {"binder": "B5", "Human AmyR3 potency [EC50 (pM)]": 7.7},
      {"binder": "B6", "Human AmyR3 potency [EC50 (pM)]": 182},
      {"binder": "B7", "Human AmyR3 potency [EC50 (pM)]": 24},
      {"binder": "B8", "Human AmyR3 potency [EC50 (pM)]": 12},
      {"binder": "B9", "Human AmyR3 potency [EC50 (pM)]": 28.6},
      {"binder": "B10", "Human AmyR3 potency [EC50 (pM)]": 74.2}
    ]}
  ]
}
